Legend:
[1] = biological target: the molecule itself; experiment: SEC-MALS; co-purified complexes, 1 g L^−1, ENrich SEC 650 column, 20 mM Tris-HCl (pH 7.5), 500 mM NaCl
[2] = biological target: T1, ADAM22 ECD (non-tagged) (human, UniProt Q9P0K1-1 26-729, p.Pro81Arg); experiment: as above; settings: both partners purified
T1 construct: signal peptide in the construct; ADAM22, human, cDNA as NM_021723 except the p.Pro81Arg polymorphism in the Pro domain; source: Expi293F, transient, co-expressed with His6-tagged LGI1; purified as the complex (Ni-NTA, SEC)
T1 sequence (looked up): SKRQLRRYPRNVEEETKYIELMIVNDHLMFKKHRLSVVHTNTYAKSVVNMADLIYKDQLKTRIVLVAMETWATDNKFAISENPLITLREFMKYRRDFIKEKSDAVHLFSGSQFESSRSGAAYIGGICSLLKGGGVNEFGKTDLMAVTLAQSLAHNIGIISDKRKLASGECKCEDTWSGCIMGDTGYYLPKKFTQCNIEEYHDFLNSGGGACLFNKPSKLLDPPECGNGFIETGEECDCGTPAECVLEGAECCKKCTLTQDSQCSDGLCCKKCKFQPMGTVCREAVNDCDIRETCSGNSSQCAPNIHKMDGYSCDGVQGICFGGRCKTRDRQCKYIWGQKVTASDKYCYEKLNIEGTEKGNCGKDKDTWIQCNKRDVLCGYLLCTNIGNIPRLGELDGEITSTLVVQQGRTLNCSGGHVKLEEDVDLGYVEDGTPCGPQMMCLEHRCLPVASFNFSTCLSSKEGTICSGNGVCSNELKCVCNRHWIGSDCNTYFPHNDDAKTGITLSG

[3] = biological target: the molecule itself; experiment: SEC-MALS; co-purified complexes, 1 g L^−1, ENrich SEC 650 column, 20 mM Tris-HCl (pH 7.5), 150 mM NaCl (standard condition)
[4] = biological target: T1, ADAM22 ECD (non-tagged); experiment: as above; settings: both partners purified
[5] = biological target: the molecule itself; experiment: crystal structure; LGI1^R470A–ADAM22 ECD complex, co-expressed and co-purified; sitting drop, 20 °C, 10% PEG8000, 0.1 M zinc acetate, 0.1 M MES-NaOH (pH 6.0); 7.13 Å
[6] = biological target: the molecule itself; experiment: SEC-SAXS; LGI1–ADAM22 complex (LGI1^R470A) at 5.7 or 8.2 g L^−1, ENrich SEC 650, 20 mM Tris-HCl (pH 7.5), 150 or 500 mM NaCl, 293 K; scattering curve compared with curves of the 2:2 crystal structure and a 3:3 model
[7] = biological target: T2, ADAM22 ECD (C-terminal His6 tag) (human, UniProt Q9P0K1-1 26-729, p.Pro81Arg); experiment: SEC-MALS; co-purified complexes, 1 g L^−1, ENrich SEC 650 column, 20 mM Tris-HCl (pH 7.5), 150 mM NaCl (standard condition); settings: both partners purified
T2 construct: signal peptide in the construct; ADAM22, human, cDNA as NM_021723 except the p.Pro81Arg polymorphism in the Pro domain; also called ADAM22 ectodomain; source: Expi293F, transient, co-expressed with LGI1 EPTP-His6; purified from culture medium (Ni-NTA, SEC)
T2 sequence (looked up): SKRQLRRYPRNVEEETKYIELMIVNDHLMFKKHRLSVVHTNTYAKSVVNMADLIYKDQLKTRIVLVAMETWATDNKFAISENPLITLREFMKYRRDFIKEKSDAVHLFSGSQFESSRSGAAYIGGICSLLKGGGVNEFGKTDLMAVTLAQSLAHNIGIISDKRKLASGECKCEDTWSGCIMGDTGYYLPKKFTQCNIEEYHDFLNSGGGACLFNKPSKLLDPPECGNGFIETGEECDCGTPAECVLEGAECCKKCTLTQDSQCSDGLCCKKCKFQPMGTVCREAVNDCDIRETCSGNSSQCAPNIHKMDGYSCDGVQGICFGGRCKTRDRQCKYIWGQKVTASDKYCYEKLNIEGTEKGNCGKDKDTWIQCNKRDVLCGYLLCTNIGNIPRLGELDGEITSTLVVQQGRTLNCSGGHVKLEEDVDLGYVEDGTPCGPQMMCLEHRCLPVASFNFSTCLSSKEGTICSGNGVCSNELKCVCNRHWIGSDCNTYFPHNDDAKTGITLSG

B1: full-length LGI1 (residues 37–557), C-terminal His6 (ligand, human, UniProt O95970-1 37-557, looked up)
chain: PAKPKCPAVCTCTKDNALCENARSIPRTVPPDVISLSFVRSGFTEISEGSFLFTPSLQLLLFTSNSFDVISDDAFIGLPHLEYLFIENNNIKSISRHTFRGLKSLIHLSLANNNLQTLPKDIFKGLDSLTNVDLRGNSFNCDCKLKWLVEWLGHTNATVEDIYCEGPPEYKKRKINSLSSKDFDCIITEFAKSQDLPYQSLSIDTFSYLNDEYVVIAQPFTGKCIFLEWDHVEKTFRNYDNITGTSTVVCKPIVIETQLYVIVAQLFGGSHIYKRDSFANKFIKIQDIEILKIRKPNDIETFKIENNWYFVVADSSKAGFTTIYKWNGNGFYSHQSLHAWYRDTDVEYLEIVRTPQTLRTPHLILSSSSQRPVIYQWNKATQLFTNQTDIPNMEDVYAVKHFSVKGDVYICLTRFIGDSKVMKWGGSSFQDIQRMPSRGSMVFQPLQINNYQYAILGSDYSFTQVYNWDAEKAKFVKFQELNVQAPRSFTHVSINKRNFLFASSFKGNTQIYKHVIVDLSA
notes: LGI1, human, cDNA NM_005097; 'full length, residues 37–557' (without the signal peptide); PDB 5Y31 holds the R470A mutant of the same limits; also called LGI1^WT; source: Expi293F, transient, co-expressed with non-tagged ADAM22 ECD; purified from culture medium (Ni-NTA, SEC)
stoichiometry N [1]: 2 LGI1 chains in the assembly | stoichiometry N [2]: 1 LGI1 per ADAM22 ECD (2:2) | stoichiometry N [3]: 3 LGI1 chains in the assembly

B2: LGI1^R474Q (residues 37–557), C-terminal His6 (ligand, human, UniProt O95970-1 37-557, looked up)
chain: PAKPKCPAVCTCTKDNALCENARSIPRTVPPDVISLSFVRSGFTEISEGSFLFTPSLQLLLFTSNSFDVISDDAFIGLPHLEYLFIENNNIKSISRHTFRGLKSLIHLSLANNNLQTLPKDIFKGLDSLTNVDLRGNSFNCDCKLKWLVEWLGHTNATVEDIYCEGPPEYKKRKINSLSSKDFDCIITEFAKSQDLPYQSLSIDTFSYLNDEYVVIAQPFTGKCIFLEWDHVEKTFRNYDNITGTSTVVCKPIVIETQLYVIVAQLFGGSHIYKRDSFANKFIKIQDIEILKIRKPNDIETFKIENNWYFVVADSSKAGFTTIYKWNGNGFYSHQSLHAWYRDTDVEYLEIVRTPQTLRTPHLILSSSSQRPVIYQWNKATQLFTNQTDIPNMEDVYAVKHFSVKGDVYICLTRFIGDSKVMKWGGSSFQDIQRMPSQGSMVFQPLQINNYQYAILGSDYSFTQVYNWDAEKAKFVKFQELNVQAPRSFTHVSINKRNFLFASSFKGNTQIYKHVIVDLSA
notes: LGI1, human, cDNA NM_005097, residues 37-557; R474Q is a human ADLTE mutation; source: Expi293F, transient, co-expressed with ADAM22 ECD; purified as the complex (Ni-NTA, SEC)
stoichiometry N [4]: 1 LGI1 per ADAM22 ECD

B3: LGI1^R470A (residues 37–557), C-terminal His6 (ligand, human, UniProt O95970-1 37-557, looked up)
chain: PAKPKCPAVCTCTKDNALCENARSIPRTVPPDVISLSFVRSGFTEISEGSFLFTPSLQLLLFTSNSFDVISDDAFIGLPHLEYLFIENNNIKSISRHTFRGLKSLIHLSLANNNLQTLPKDIFKGLDSLTNVDLRGNSFNCDCKLKWLVEWLGHTNATVEDIYCEGPPEYKKRKINSLSSKDFDCIITEFAKSQDLPYQSLSIDTFSYLNDEYVVIAQPFTGKCIFLEWDHVEKTFRNYDNITGTSTVVCKPIVIETQLYVIVAQLFGGSHIYKRDSFANKFIKIQDIEILKIRKPNDIETFKIENNWYFVVADSSKAGFTTIYKWNGNGFYSHQSLHAWYRDTDVEYLEIVRTPQTLRTPHLILSSSSQRPVIYQWNKATQLFTNQTDIPNMEDVYAVKHFSVKGDVYICLTRFIGDSKVMKWGGSSFQDIQAMPSRGSMVFQPLQINNYQYAILGSDYSFTQVYNWDAEKAKFVKFQELNVQAPRSFTHVSINKRNFLFASSFKGNTQIYKHVIVDLSA
notes: LGI1, human, cDNA NM_005097, residues 37-557; also called LGI1 (in the 'LGI1–ADAM22 complex'); source: Expi293F, transient, co-expressed with non-tagged ADAM22 ECD; purified as the complex (Ni-NTA, SEC)
stoichiometry N [5]: 2 LGI1 chains in the assembly | stoichiometry N [6]: 3 LGI1 chains in the assembly

B4: LGI1 EPTP (domain or fragment, human, UniProt O95970-1 224-557, looked up)
chain: TEFAKSQDLPYQSLSIDTFSYLNDEYVVIAQPFTGKCIFLEWDHVEKTFRNYDNITGTSTVVCKPIVIETQLYVIVAQLFGGSHIYKRDSFANKFIKIQDIEILKIRKPNDIETFKIENNWYFVVADSSKAGFTTIYKWNGNGFYSHQSLHAWYRDTDVEYLEIVRTPQTLRTPHLILSSSSQRPVIYQWNKATQLFTNQTDIPNMEDVYAVKHFSVKGDVYICLTRFIGDSKVMKWGGSSFQDIQRMPSRGSMVFQPLQINNYQYAILGSDYSFTQVYNWDAEKAKFVKFQELNVQAPRSFTHVSINKRNFLFASSFKGNTQIYKHVIVDLSA
notes: LGI1, human, cDNA NM_005097; EPTP domain, residues 224-557; also called C-terminal epitempin-repeat (EPTP) domain of LGI1; EAR domain; source: Expi293F, transient, co-expressed with His6-tagged ADAM22 ECD; purified from culture medium (Ni-NTA, SEC)
stoichiometry N [7]: 1 LGI1 EPTP per ADAM22 ECD

Source: article PMC5906670, “Structural basis of epilepsy-related ligand–receptor complex LGI1–ADAM22” (Nature Communications, 2018)
